Patent US20260167699A1 (Chugai, published 2026)

B1: GpH7-A5/GpH7-B3 variant L234_01G/GpL16-k0 (antibody, human IgG1, kappa)
heavy 1: not shown
heavy 2: not shown
light: DIVMTQSPLSLPVTPGEPASISCQASESLVHSNRNTYLHWYLQKPGQSPQLLIYKVSNRFSGVPDRFSGSGSGTDFTLKISRVEAEDVGVYYCSQNTHVPPTFGQGTKVEIERTVAAPSVFIFPPSDEQLKSGTASVVCLLNNFYPREAKVQWKVDNALQSGNSQESVTEQDSKDSTYSLSSTLTLSKADYEKHKVYACEVTHQGLSSPVTKSFNRGEC
notes: He Ab; copies: 1 + 1 + 2
B2: GpH7-A5/GpH7-B3 variant P271_04F/GpL16-k0 (antibody, human IgG1, kappa)
heavy 1: not shown
heavy 2: not shown
light: B1 light
notes: He Ab; copies: 1 + 1 + 2
B3: GpH7-A5/GpH7-B3 variant L328_03V/GpL16-k0 (antibody, human IgG1, kappa)
heavy 1: not shown
heavy 2: not shown
light: B1 light
notes: He Ab; copies: 1 + 1 + 2
B4: GpH7-A5/GpH7-B3 variant L234_16H/GpL16-k0 (antibody, human IgG1, kappa)
heavy 1: not shown
heavy 2: not shown
light: B1 light
notes: He Ab; copies: 1 + 1 + 2
B5: GpH7-A5/GpH7-B3 variant P238_09D/GpL16-k0 (antibody, human IgG1, kappa)
heavy 1: not shown
heavy 2: not shown
light: B1 light
notes: He Ab; copies: 1 + 1 + 2
B6: GpH7-A5/GpH7-B3 variant L234_05P/GpL16-k0 (antibody, human IgG1, kappa)
heavy 1: not shown
heavy 2: not shown
light: B1 light
notes: He Ab; copies: 1 + 1 + 2
B7: GpH7-A5/GpH7-B3 variant L235_15Y/GpL16-k0 (antibody, human IgG1, kappa)
heavy 1: not shown
heavy 2: not shown
light: B1 light
notes: He Ab; copies: 1 + 1 + 2
B8: GpH7-A5/GpH7-B3 variant L235_18N/GpL16-k0 (antibody, human IgG1, kappa)
heavy 1: not shown
heavy 2: not shown
light: B1 light
notes: He Ab; copies: 1 + 1 + 2
B9: GpH7-A5/GpH7-B3 variant L328_06M/GpL16-k0 (antibody, human IgG1, kappa)
heavy 1: not shown
heavy 2: not shown
light: B1 light
notes: He Ab; copies: 1 + 1 + 2
B10: GpH7-A5/GpH7-B3 variant L328_13S/GpL16-k0 (antibody, human IgG1, kappa)
heavy 1: not shown
heavy 2: not shown
light: B1 light
notes: He Ab; copies: 1 + 1 + 2
B11: GpH7-A5/GpH7-B3 variant L235_19Q/GpL16-k0 (antibody, human IgG1, kappa)
heavy 1: not shown
heavy 2: not shown
light: B1 light
notes: He Ab; copies: 1 + 1 + 2
B12: GpH7-A5/GpH7-B3 variant L235_14T/GpL16-k0 (antibody, human IgG1, kappa)
heavy 1: not shown
heavy 2: not shown
light: B1 light
notes: He Ab; copies: 1 + 1 + 2
B13: GpH7-A5/GpH7-B3 variant N325_13S/GpL16-k0 (antibody, human IgG1, kappa)
heavy 1: not shown
heavy 2: not shown
light: B1 light
notes: He Ab; copies: 1 + 1 + 2
B14: GpH7-A5/GpH7-B3 variant L235_07I/GpL16-k0 (antibody, human IgG1, kappa)
heavy 1: not shown
heavy 2: not shown
light: B1 light
notes: He Ab; copies: 1 + 1 + 2
B15: GpH7-A5/GpH7-B3 variant L328_02A/GpL16-k0 (antibody, human IgG1, kappa)
heavy 1: not shown
heavy 2: not shown
light: B1 light
notes: He Ab; copies: 1 + 1 + 2
B16: GpH7-A5/GpH7-B3 variant L234_15Y/GpL16-k0 (antibody, human IgG1, kappa)
heavy 1: not shown
heavy 2: not shown
light: B1 light
notes: He Ab; copies: 1 + 1 + 2
B17: GpH7-A5/GpH7-B3 variant L235_20W/GpL16-k0 (antibody, human IgG1, kappa)
heavy 1: not shown
heavy 2: not shown
light: B1 light
notes: He Ab; copies: 1 + 1 + 2
B18: GpH7-A5/GpH7-B3 variant L234_09D/GpL16-k0 (antibody, human IgG1, kappa)
heavy 1: not shown
heavy 2: not shown
light: B1 light
notes: He Ab; copies: 1 + 1 + 2
B19: GpH7-A5/GpH7-B3 variant P238_08L/GpL16-k0 (antibody, human IgG1, kappa)
heavy 1: not shown
heavy 2: not shown
light: B1 light
notes: He Ab; copies: 1 + 1 + 2
B20: GpH7-A5/GpH7-B3 variant L234_04F/GpL16-k0 (antibody, human IgG1, kappa)
heavy 1: not shown
heavy 2: not shown
light: B1 light
notes: He Ab; copies: 1 + 1 + 2
B21: GpH7-A5/GpH7-B3 variant P271_10E/GpL16-k0 (antibody, human IgG1, kappa)
heavy 1: not shown
heavy 2: not shown
light: B1 light
notes: He Ab; copies: 1 + 1 + 2
B22: GpH7-A5/GpH7-B3 variant L235_03V/GpL16-k0 (antibody, human IgG1, kappa)
heavy 1: not shown
heavy 2: not shown
light: B1 light
notes: He Ab; copies: 1 + 1 + 2
B23: GpH7-A5/GpH7-B3 variant P271_06M/GpL16-k0 (antibody, human IgG1, kappa)
heavy 1: not shown
heavy 2: not shown
light: B1 light
notes: He Ab; copies: 1 + 1 + 2
B24: GpH7-A5/GpH7-B3 variant L235_09D/GpL16-k0 (antibody, human IgG1, kappa)
heavy 1: not shown
heavy 2: not shown
light: B1 light
notes: He Ab; copies: 1 + 1 + 2
B25: GpH7-A5/GpH7-B3 variant P271_08L/GpL16-k0 (antibody, human IgG1, kappa)
heavy 1: not shown
heavy 2: not shown
light: B1 light
notes: He Ab; copies: 1 + 1 + 2
B26: GpH7-A5/GpH7-B3 variant L328_07I/GpL16-k0 (antibody, human IgG1, kappa)
heavy 1: not shown
heavy 2: not shown
light: B1 light
notes: He Ab; copies: 1 + 1 + 2
B27: GpH7-A5/GpH7-B3 variant L235_02A/GpL16-k0 (antibody, human IgG1, kappa)
heavy 1: not shown
heavy 2: not shown
light: B1 light
notes: He Ab; copies: 1 + 1 + 2
B28: GpH7-A5/GpH7-B3 variant L235_06M/GpL16-k0 (antibody, human IgG1, kappa)
heavy 1: not shown
heavy 2: not shown
light: B1 light
notes: He Ab; copies: 1 + 1 + 2
B29: GpH7-A5/GpH7-B3 variant L328_19Q/GpL16-k0 (antibody, human IgG1, kappa)
heavy 1: not shown
heavy 2: not shown
light: B1 light
notes: He Ab; copies: 1 + 1 + 2
B30: GpH7-A5/GpH7-B3 variant L328_16H/GpL16-k0 (antibody, human IgG1, kappa)
heavy 1: not shown
heavy 2: not shown
light: B1 light
notes: He Ab; copies: 1 + 1 + 2

target: T1, FcγRIIIa extracellular domain, C-terminal His tag (human, UniProt P08637 17-208); test: SPR, binding activity relative to GpH7-A5/GpH7-B3/GpL16-k0 (=100)
T1 construct: extracellular domain; also called 3a
T1 sequence (P08637 other isoform, or with tags, fused parts or gaps): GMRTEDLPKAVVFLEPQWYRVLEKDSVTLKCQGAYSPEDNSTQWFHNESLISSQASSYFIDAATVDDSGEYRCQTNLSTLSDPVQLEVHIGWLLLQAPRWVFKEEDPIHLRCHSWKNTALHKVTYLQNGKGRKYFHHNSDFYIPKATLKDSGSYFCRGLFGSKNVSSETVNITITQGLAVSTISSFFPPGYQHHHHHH

He/Con 3a [%] | Binder
55.8 | B1
65.6 | B2
80.9 | B3
76.8 | B4
100 | B5
85.1 | B6
77.8 | B7
65 | B8
80.8 | B9
73.7 | B10
68.1 | B11
73.2 | B12
71.9 | B13
92.8 | B14
81.3 | B15
126 | B16
73.8 | B17
113 | B18
71.3 | B19
114 | B20
98.2 | B21
94.6 | B22
74 | B23
88.5 | B24
74.5 | B25
86.4 | B26
72 | B27
75.6 | B28
83.4 | B29
55.9 | B30
